The source of these data is article PMC8512817, “Domain Analysis and Motif Matcher (DAMM): A Program to Predict Selectivity Determinants in Monosiga brevicollis PDZ Domains Using Human PDZ Data” (Molecules, 2021).

The experiment concerns the target T1, DLG1-1 PDZ (DLG1 PDZ1, residues 220-317) (human, UniProt Q12959 220-317).
T1 construct: not shown: His tag, N-terminal, kept
The experiment can be described thus: fluorescence polarisation. The following applies: both partners purified. A general note: Fluorescence polarisation rises when a labelled molecule tumbles more slowly, as on binding a larger partner.

T1 sequence (Q12959 220-317): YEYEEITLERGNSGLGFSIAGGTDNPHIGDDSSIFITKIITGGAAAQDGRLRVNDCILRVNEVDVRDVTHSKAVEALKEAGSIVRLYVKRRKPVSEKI

For orientation: Ki means the dissociation constant of the complex between target and ligand, obtained from inhibition or displacement. The low end stands for a stronger hold on the target, the high end for a looser hold on the target. WDETNL [BPIX peptide (WDETNL)] showed a Ki of 460 ± 140 µM.

QSSSEA [GAIP peptide (QSSSEA)] gave a Ki of 980 ± 180 µM.

In turn, SSRTRRETQL [HPV16 E6 peptide (SSRTRRETQL)] returned an inhibitory constant (Ki) of 23 ± 5 µM.

In turn, QSESRL [A9UP44 peptide (QSESRL)] showed a Ki of 39 ± 25 µM.

In the case of EDETAL [A9V7Z4 peptide (EDETAL)], the affinity corresponds to a Ki of 460 ± 190 µM.

QDETAL [A9UXE1 peptide (QDETAL)] returned a Ki of 190 ± 20 µM.

Consider PNQSVV [TYRP1 peptide (PNQSVV)], for which the Ki worked out at 46 ± 21 µM.

In turn, ESESKV [GIRK3 peptide (ESESKV)] gave an inhibition constant Ki of 350 ± 20 µM.

Take ASESKV [B1AR peptide (ASESKV)]: the Ki turned out to be 44 ± 23 µM.
